The text below walks through data of paper PMC8469834.

The subject of data set [1] is T1, CadR (Pseudomonas putida KT2440), ORF:5b9d404e.
T1 sequence: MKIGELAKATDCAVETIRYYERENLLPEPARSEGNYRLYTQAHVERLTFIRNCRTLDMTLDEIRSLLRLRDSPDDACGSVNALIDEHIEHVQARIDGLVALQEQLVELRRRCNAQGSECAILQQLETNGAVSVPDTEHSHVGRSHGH
Briefly: EMSA. Conditions: 10 mM Tris-HCl pH 8.0, 50 mM KCl, 5 mM MgCl2, 5% glycerol, 28 °C 20 min; EMSA 10 nM FAM probe (carbamyl phosphate with CzcR3); footprinting 40 nM probe, about ….

For data set [2], the system named is T2, CzcR3 (Pseudomonas putida KT2440), ORF:67c4da9b.
T2 sequence: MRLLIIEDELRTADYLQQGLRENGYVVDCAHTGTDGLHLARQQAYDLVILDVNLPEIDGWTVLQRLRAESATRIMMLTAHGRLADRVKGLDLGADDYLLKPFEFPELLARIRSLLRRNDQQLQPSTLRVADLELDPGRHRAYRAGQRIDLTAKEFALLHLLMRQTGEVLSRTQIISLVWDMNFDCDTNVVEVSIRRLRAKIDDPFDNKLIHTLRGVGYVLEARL
Nature of the data set: EMSA. Conditions: 10 mM Tris-HCl pH 8.0, 50 mM KCl, 5 mM MgCl2, 5% glycerol, 28 °C 20 min; EMSA 10 nM FAM probe (carbamyl phosphate with CzcR3); footprinting 40 nM probe, about ….

In data set [3] the test system is T1, CadR (Pseudomonas putida KT2440), ORF:5b9d404e. Briefly: DNase I footprinting. Conditions: 10 mM Tris-HCl pH 8.0, 50 mM KCl, 5 mM MgCl2, 5% glycerol, 28 °C 20 min; EMSA 10 nM FAM probe (carbamyl phosphate with CzcR3); footprinting 40 nM probe, about ….
Data set [4] relates to T2, CzcR3 (Pseudomonas putida KT2440), ORF:67c4da9b. Nature of the data set: DNase I footprinting. Conditions: 10 mM Tris-HCl pH 8.0, 50 mM KCl, 5 mM MgCl2, 5% glycerol, 28 °C 20 min; EMSA 10 nM FAM probe (carbamyl phosphate with CzcR3); footprinting 40 nM probe, about ….
For data set [5], the target named is CzcR3, the response regulator of two-component system CzcRS3 (Pseudomonas putida KT2440) (UniProt F6KX51). Briefly: electrophoresis analysis; purified His-tagged CzcR3 alone, in vitro; kind of gel and conditions not told in the text (Figure S1).

“TGTAAAACGACGGCCAGTTACAGGCGCGGGTTTACTCGCGAAGAGGCCCGAACAGACAGCCAGATAACAGCAGAATTACAAATCCGTTATCTGCACCGCAGGCCTTTTTTCATGCCGTAACATTGGGGCGCTTGACCCTGATGTCACTACAGGGTCAAGAATCGTCCCCTTTCAACATACCGAGCCCCCCATG (double strand) [czcRS3 (czcR3) promoter probe, native]”: the binding result in data set [1], in data set [2], in data set [3] and in data set [4] was “binds” in each case.

In data set [5], “CzcR3, the response regulator of two-component system CzcRS3 (from UniProt F6KX51 1-224) (natural protein)” had a stoichiometry N of 2.

On to “GATTATCGAACTTATTGGGCGTTGACTGTCCTGTACCCAGCCGTGCAAAGCTGCTTCTGCAACGAACCGCAGTGCGTCATTACAAAATTGTAATCTTGCCGCCACCGCCCCGATAACCAGCCCTTTCTACAGTCCCTGGCCAATGCT (double strand) [czcC2 (czcCBA2) promoter probe]”, for which the binding entry in data set [2] and in data set [4] was “binds” each time.

Turning to “GTATCGAAATCATCGTGTCGGGTTGGGTTTCCCAGTATTTACGGGCATTACAAAGCTTTCTTACGAAATTGTAATTTTCTAGCCACCCCTCTGATAGCTACCGCTCATTAGAGTGCCATCACCTAATCAAGTGGGGCTTGGCAGCTGTTTCGGCGTTCTCGCCAAGCTTTATCGAAGTTTGTGCACGAGGACCATCAAAGTGCCCCGGTATAACCGCA (double strand) [czcC1 (czcCBA1) promoter probe]”, the binding result in data set [2] and in data set [4] was “binds” each time.

Turning to “TGTAAAACGACGGCCAGTTACAGGCGCGGGTTTACTCGCGAAGAGGCCCGAACAGACAGCCAGATAACAGCAGAATTACAAATCCGTTATCTGCACCGCAGGCCTTTTTTCATGCCGTAACATTGGGGCGCTTGACAAAGATGTCACTACAAAGTCAAGAATCGTCCCCTTTCAACATACCGAGCCCCCCATG (double strand) [czcRS3 (czcR3) promoter probe, mutated CadR site]”, the binding result in data set [1] is recorded as “no binding”.
